Measured values reported in publication PMC5915741, “A Viral Suppressor Modulates the Plant Immune Response Early in Infection by Regulating MicroRNA Activity” (mBio, 2018).

B1: AtmiR168a (= NbmiR168d,e) (dsRNA)
RNA 1: UCGCUUGGUGCAGGUCGGGAA
RNA 2: CCCGCCUUGCAUCAACUGAAU
modifications: 5' phosphate on both strands
B2: AtmiR403 (dsRNA)
RNA 1: UUAGAUUCACGCACAAACUCG
RNA 2: UGUUUUGUGCUUGAAUCUAAUU
modifications: 5' phosphate on both strands
B3: AtmiR162 (= NbmiR162b per Table 1) (dsRNA)
RNA 1: UCGAUAAACCUCUGCAUCCAG
RNA 2: GGAGGCAGCGGUUCAUCGAUC
modifications: 5' phosphate on both strands
B4: NbmiR162a (Table 1 name) (dsRNA)
RNA 1: UCGAUAAACCUCUGCAUCCAG
RNA 2: GGAGGCAGCGGUUUAUCGAUC
modifications: 5' phosphate on both strands
B5: gf698 siRNA (dsRNA)
RNA 1: UAGUUCAUCCAUGCCAUGUGU
RNA 2: ACAUGGCAUGGAUGAACUAUA
modifications: 5' phosphate on both strands
B6: NbmiR403a (dsRNA)
RNA 1: UUAGAUUCACGCACAAACUCG
RNA 2: UGUUUGUGCGUGAAUCUGACA
modifications: 5' phosphate on both strands
B7: NbmiR168a,b,c (dsRNA)
RNA 1: UCGCUUGGUGCAGGUCGGGAC
RNA 2: CCCGCCUUGCAUCAACUGAAU
modifications: 5' phosphate on both strands
B8: AtmiR168b (dsRNA)
RNA 1: UCGCUUGGUGCAGGUCGGGAA
RNA 2: CCCGUCUUGUAUCAACUGAAU
modifications: 5' phosphate on both strands
B9: NbmiR403b (dsRNA)
RNA 1: UUAGAUUCACGCACAAACUCG
RNA 2: UGUUUGUGCGUGAUUCUGACA
modifications: 5' phosphate on both strands
B10: Carnation Italian ringspot virus (CIRV) p19 protein (natural protein)
chain: MERAIQGNDTREQANGERWDGGSGGITSPFKLPDESPSWTEWRLYNDETNSNQDNPLGFKESWGFGKVVFKRYLRYDRTEASLHRVLGSWTGDSVNYAASRFLGANQVGCTYSIRFRGVSVTISGGSRTLQHLCEMAIRSKQELLQLTPVEVESNVSRGCPEGIETFKKESE
notes: p19 viral suppressor of RNA silencing of Carnation Italian ringspot virus (CIRV); the p19 open reading frame cloned into pGEX-6P-1; theoretical mass of the monomer 19.479 kDa; GST removed with PreScission protease; also called Tombusvirus p19; source: E. coli BL21(DE3) RIPL, purified (GSTrap, PreScission cleavage, Resource Q anion exchange)

Key:
p19 [1] = molecular target: T1, p19 (Carnation Italian ringspot virus (CIRV), UniProt Q66104 1-172); assay: competition EMSA; KC vs labeled gf698 siRNA, 0.5 nM p19 dimer; conditions: protein: recombinant, tags: GST (pGEX-6P-1) removed by PreScission protease, chain copies: 2
T1 sequence: B10 chain

2b [2] = molecular target: T2, 2b (Tomato aspermy virus (TAV), UniProt Q8UYT3 1-95); assay: competition EMSA; KC vs labeled gf698 siRNA, 1.9 nM 2b monomer; conditions: protein: recombinant, tags: His-SUMO removed by SUMO protease, chain copies: 2
T2 sequence: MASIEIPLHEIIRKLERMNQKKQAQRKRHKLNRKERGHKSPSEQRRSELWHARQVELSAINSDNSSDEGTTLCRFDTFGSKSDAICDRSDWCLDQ

p19 [3] = molecular target: T1, p19; assay: EMSA; conditions: protein: recombinant, tags: GST (pGEX-6P-1) removed by PreScission protease, chain copies: 2
2b [4] = molecular target: T2, 2b; assay: EMSA; conditions: protein: recombinant, tags: His-SUMO removed by SUMO protease, chain copies: 2
[5] = molecular target: the molecule itself; assay: AUC; sedimentation equilibrium (18,000 rpm) and velocity (40,000 rpm), 20°C, CIRV p19 at 1.2 to 13 µM in buffer D; no RNA
[6] = miRNA duplex with mismatches, 3' overhangs
[7] = miRNA duplex with mismatches, 22 nt star strand
[8] = label: 5'-32P, miRNA duplex with mismatches, 3' overhangs

Binder | Ki (2b [2]; [6]) [nM] | Kd (p19 [3]; [6]) [nM] | Kd (2b [4]; [6]) [nM] | Kd (p19 [3]; [8]) [nM] | other results
B1 | 12.1 ± 0.7 | 2.29 ± 0.78 | 1.24 ± 0.15 | – | Ki (p19 [1]; [6]): 1.59 ± 0.35 nM
B2 | – | – | – | – | Ki (p19 [1]; [7]): 1.09 ± 0.43 nM; Ki (2b [2]; [7]): 0.05 ± 0.004 nM; Kd (p19 [3]; [7]): 1.37 ± 0.29 nM; Kd (2b [4]; [7]): 0.26 ± 0.03 nM
B3 | 0.67 ± 0.09 | 0.07 ± 0.03 | 0.46 ± 0.06 | – | Ki (p19 [1]; [6]): 0.12 ± 0.05 nM
B4 | – | – | – | 0.14 ± 0.05 | –
B5 | – | – | – | – | Ki (p19 [1]; 2 nt 3' overhangs): 0.07 ± 0.03 nM; Ki (2b [2]; 2 nt 3' overhangs): 0.53 ± 0.08 nM; Kd (p19 [3]; 2 nt 3' overhangs): 0.06 ± 0.04 nM; Kd (2b [4]; 2 nt 3' overhangs): 0.68 ± 0.15 nM
B6 | 0.01 ± 0.006 | 0.11 ± 0.02 | 0.22 ± 0.03 | – | –
B7 | – | – | – | 6.57 ± 1.5 | –
B8 | – | – | – | 4.83 ± 1.57 | –
B9 | 0.02 ± 0.003 | 0.37 ± 0.06 | 0.26 ± 0.03 | – | –
B10 | – | – | – | – | stoichiometry N [5]: 2
